This is an account of results in patent US20240270821A1, “GIP/GLP1/GCG TRI-RECEPTOR AGONISTS AND USES THEREOF” (priority 2023, published 2024).

Common to all, as to experiment: cell-based or functional assay
Experiment [1] deals with human glucagon receptor (human) (UniProt P47871).
Experiment [2] concerns the target T1, human GIP receptor (human) (UniProt P48546).
T1 sequence (looked up): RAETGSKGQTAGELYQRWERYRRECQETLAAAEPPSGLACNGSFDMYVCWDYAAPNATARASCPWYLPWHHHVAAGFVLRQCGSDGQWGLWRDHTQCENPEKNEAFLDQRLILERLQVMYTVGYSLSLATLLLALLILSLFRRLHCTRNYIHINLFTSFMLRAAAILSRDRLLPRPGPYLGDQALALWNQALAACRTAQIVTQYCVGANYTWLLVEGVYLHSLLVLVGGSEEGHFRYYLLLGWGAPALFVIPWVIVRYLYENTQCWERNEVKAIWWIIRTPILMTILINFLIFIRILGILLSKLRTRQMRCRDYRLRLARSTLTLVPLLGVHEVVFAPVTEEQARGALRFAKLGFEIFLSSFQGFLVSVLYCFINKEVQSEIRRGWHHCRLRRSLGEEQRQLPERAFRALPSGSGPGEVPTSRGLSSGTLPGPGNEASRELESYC

In experiment [3] the target is hGLP-1R (Homo sapiens, UniProt P43220).
Sequence of hGLP-1R (P43220 24-463): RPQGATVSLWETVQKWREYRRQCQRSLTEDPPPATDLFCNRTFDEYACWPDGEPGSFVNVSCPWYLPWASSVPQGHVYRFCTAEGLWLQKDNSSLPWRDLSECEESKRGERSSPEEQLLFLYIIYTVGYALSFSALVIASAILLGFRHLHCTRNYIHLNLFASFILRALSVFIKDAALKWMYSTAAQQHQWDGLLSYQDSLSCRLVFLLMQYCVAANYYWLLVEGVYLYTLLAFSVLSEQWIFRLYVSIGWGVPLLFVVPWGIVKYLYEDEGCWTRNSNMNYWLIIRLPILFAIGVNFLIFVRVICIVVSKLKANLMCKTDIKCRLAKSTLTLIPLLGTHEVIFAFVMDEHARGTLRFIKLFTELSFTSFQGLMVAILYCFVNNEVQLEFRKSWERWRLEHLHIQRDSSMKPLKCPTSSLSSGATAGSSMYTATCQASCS

Sequence of human glucagon receptor (human) (P47871 26-477): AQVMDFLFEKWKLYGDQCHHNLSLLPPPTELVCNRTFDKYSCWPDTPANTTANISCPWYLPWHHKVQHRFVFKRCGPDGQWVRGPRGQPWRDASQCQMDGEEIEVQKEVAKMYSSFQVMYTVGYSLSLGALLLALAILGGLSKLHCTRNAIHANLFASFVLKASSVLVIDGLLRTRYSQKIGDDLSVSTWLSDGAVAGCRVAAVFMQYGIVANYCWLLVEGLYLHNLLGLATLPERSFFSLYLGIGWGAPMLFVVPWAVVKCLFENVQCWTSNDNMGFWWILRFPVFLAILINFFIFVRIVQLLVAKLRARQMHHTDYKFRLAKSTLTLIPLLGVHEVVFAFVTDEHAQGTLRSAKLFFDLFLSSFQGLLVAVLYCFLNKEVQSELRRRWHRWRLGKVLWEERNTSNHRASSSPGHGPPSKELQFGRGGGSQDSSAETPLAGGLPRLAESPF

B1: Example 52 (peptide)
chain: YXQGTFTSDFSKXLDKKAQXAFIEYLLEGGPSSGAPPPXEG
modifications: synthetic construct; SITE 2: note = 2-Aminoisobutyric Acid; SITE 13: note = alpha-methyl-leucine; SITE 17: note = Lysine is chemically modified through conjugation of the epsilon-amino group of the Lysine side chain with (2-[2-(2-Amino-ethoxy)-ethoxy]-acetyl)-(gamma-Glu)-CO-(CH2) 18-CO2H; SITE 20: n
Consider B1, for which the Relative cAMP EC50 in experiment [1] was determined as 5.84 nM; in experiment [2], 0.449 nM; in experiment [3], 5.18 nM. For the same molecule, the figures for the cAMP Rel EC50, nM (in the presence of 1% HSA) in experiment [1], in experiment [2] and in experiment [3] were 1740 nM, 111 nM and 1250 nM, respectively.

B2: Example 53 (peptide)
chain: YXQGTFTSDFSKXLDKKAQXAFIEYLLEGGPSSGAPPPXGE
modifications: synthetic construct; SITE 2: note = 2-Aminoisobutyric Acid; SITE 13: note = alpha-methyl-leucine; SITE 17: note = Lysine is chemically modified through conjugation of the epsilon-amino group of the Lysine side chain with (2-[2-(2-Amino-ethoxy)-ethoxy]-acetyl)-(gamma-Glu)-CO-(CH2) 18-CO2H; SITE 20: n
Regarding B2, the Relative cAMP EC50 in experiment [1] worked out at 4.19 nM; in experiment [2] it was 0.518 nM; in experiment [3] it was 3.31 nM. For the same molecule, the cAMP Rel EC50, nM (in the presence of 1% HSA) in experiment [1] is 1780 nM; in experiment [2] it was 113 nM; in experiment [3], 1030 nM.

B3: Example 603 (peptide)
chain: YXQGTXTSDXXILLDXKAQXXFIEYLIEGGPSSGEPPPEGSEE
modifications: non-natural residues, acylated Lys ((γGlu)2-C18 diacid), C-terminal amide; synthetic construct; SITE 2: note = 2-Aminoisobutyric Acid; SITE 6: note = alpha-methyl-2-fluoro-L-phenylalanine; SITE 10: note = 3-(4-Pyridyl)-L-alanine; SITE 11: note = alpha-methyl-L-serine; SITE 16: note = L-ornithine; SITE 17: note = Lysine is chemically modified through conjugation of the epsi
On to B3, for which the Relative cAMP EC50 came out at 5.43 nM in experiment [1], 0.102 nM in experiment [2] and 0.688 nM in experiment [3]. In addition, the cAMP Rel EC50 (in the presence of 1% HSA) came out at 419 nM in experiment [1], 4.99 nM in experiment [2] and 49.5 nM in experiment [3].

B4: Example 604 (peptide)
chain: YXQGTXTSDXXILLDXKAQXXFIEYLIEGGPSSGEPPPEGAEE
modifications: non-natural residues; Lys acylated C18 diacid; C-terminal amide; synthetic construct; SITE 2: note = 2-Aminoisobutyric Acid; SITE 6: note = alpha-methyl-2-fluoro-L-phenylalanine; SITE 10: note = 3-(4-Pyridyl)-L-alanine; SITE 11: note = alpha-methyl-L-serine; SITE 16: note = L-ornithine; SITE 17: note = Lysine is chemically modified through conjugation of the epsi
In the case of B4, the Relative cAMP EC50 in experiment [1] stood at 5.5 nM; in experiment [2] it was 0.161 nM; in experiment [3], 0.705 nM. Besides, the cAMP Rel EC50 (in the presence of 1% HSA) worked out at 427 nM in experiment [1], 4.84 nM in experiment [2] and 51 nM in experiment [3].

B5: Example 605 (peptide)
chain: YXQGTXTSDXXILLDXKAQXXFIEYLIEGGPSSGEPPPEGGEE
modifications: Aib, αMeF(2F), 4Pal, αMeS, Orn; acylated lysine; amide; synthetic construct; SITE 2: note = 2-Aminoisobutyric Acid; SITE 6: note = alpha-methyl-2-fluoro-L-phenylalanine; SITE 10: note = 3-(4-Pyridyl)-L-alanine; SITE 11: note = alpha-methyl-L-serine; SITE 16: note = L-ornithine; SITE 17: note = Lysine is chemically modified through conjugation of the epsi
B5: the figures for the Relative cAMP EC50 in experiment [1], in experiment [2] and in experiment [3] were 5.49 nM, 0.132 nM and 0.795 nM, respectively. The cAMP Rel EC50 (in the presence of 1% HSA) worked out at 353 nM in experiment [1], 6.69 nM in experiment [2] and 56.2 nM in experiment [3].

B6: Example 606 (peptide)
chain: YXQGTXTSDXXILLDXKAQXXFIEYLIEGGPSSGEPPPEGEEE
modifications: Lys acylated (γ-Glu)2-C18 diacid; non-natural residues; C-terminal amide; synthetic construct; SITE 2: note = 2-Aminoisobutyric Acid; SITE 6: note = alpha-methyl-2-fluoro-L-phenylalanine; SITE 10: note = 3-(4-Pyridyl)-L-alanine; SITE 11: note = alpha-methyl-L-serine; SITE 16: note = L-ornithine; SITE 17: note = Lysine is chemically modified through conjugation of the epsi
For the molecule B6, the Relative cAMP EC50 in experiment [1] stood at 5.01 nM; in experiment [2], 0.17 nM; in experiment [3], 0.786 nM. Further, the cAMP Rel EC50 (in the presence of 1% HSA) in experiment [1] came out at 474 nM; in experiment [2], 5.69 nM; in experiment [3], 53.1 nM.

B7: Example 545 (peptide)
chain: YXQGTXTSDXXIXLDXKAQXXFIEXLAEGGPSSGEPPPSGTGE
modifications: synthetic construct; SITE 2: note = 2-Aminoisobutyric Acid; SITE 6: note = alpha-methyl-2-fluoro-L-phenylalanine; SITE 10: note = 3-(4-Pyridyl)-L-alanine; SITE 11: note = alpha-methyl-L-serine; SITE 13: note = alpha-methyl-leucine; SITE 16: note = L-ornithine; SITE 17: note = Lysine is chemically mo
In the case of B7, the Relative cAMP EC50 in experiment [1] is 2.71 nM; in experiment [2] it was 0.0432 nM; in experiment [3] it was 0.602 nM. Besides, the cAMP Rel EC50 (1% HSA) in experiment [1] came to 180 nM; in experiment [2] it was 2.74 nM; in experiment [3] it was 40.2 nM.

B8: Example 597 (peptide)
chain: YXQGTXTSDXXIXLDXKAQXXFIEXLTEGGPSSGEPPPEGTEE
modifications: acylated Lys (γGlu)2-C18 diacid; non-natural residues; C-terminal amide; synthetic construct; SITE 2: note = 2-Aminoisobutyric Acid; SITE 6: note = alpha-methyl-2-fluoro-L-phenylalanine; SITE 10: note = 3-(4-Pyridyl)-L-alanine; SITE 11: note = alpha-methyl-L-serine; SITE 13: note = alpha-methyl-leucine; SITE 16: note = L-ornithine; SITE 17: note = Lysine is chemically mo
B8: the Relative cAMP EC50 in experiment [1] amounted to 5.2 nM; in experiment [2], 0.0643 nM; in experiment [3], 0.6 nM. In addition, the figures for the cAMP Rel EC50 (in the presence of 1% HSA) in experiment [1], in experiment [2] and in experiment [3] were 329 nM, 2.38 nM and 36.4 nM, respectively.

B9: Example 607 (peptide)
chain: YXQGTXTSDXSILLDKKAQXAFIEYLEEGGPSSGEPPPSGTGE
modifications: Aib, αMeF(2F), 4Pal; acylated K; C-terminal amide; synthetic construct; SITE 2: note = 2-Aminoisobutyric Acid; SITE 6: note = alpha-methyl-2-fluoro-L-phenylalanine; SITE 10: note = 3-(4-Pyridyl)-L-alanine; SITE 17: note = Lysine is chemically modified through conjugation of the epsilon-amino group of the Lysine side chain with (gamma-Glu)2-CO-(CH2)1
With B9, the Relative cAMP EC50 in experiment [1] is 8.91 nM; in experiment [2] it was 0.0879 nM; in experiment [3] it was 1.15 nM. Also, the figures for the cAMP Rel EC50 (in the presence of 1% HSA) in experiment [1], in experiment [2] and in experiment [3] were 565 nM, 6.63 nM and 139 nM, respectively.

B10: Example 612 (peptide)
chain: YXQGTXTSDXSILLDKKAQXAFIEYLEEGGPSSGAPPPSGGEE
modifications: Aib, alpha-methyl-2F-Phe, 4Pal, lipidated Lys, amide; synthetic construct; SITE 2: note = 2-Aminoisobutyric Acid; SITE 6: note = alpha-methyl-2-fluoro-L-phenylalanine; SITE 10: note = 3-(4-Pyridyl)-L-alanine; SITE 17: note = Lysine is chemically modified through conjugation of the epsilon-amino group of the Lysine side chain with (gamma-Glu)2-CO-(CH2)1
In the case of B10, the Relative cAMP EC50 stood at 7.13 nM in experiment [1], 0.087 nM in experiment [2] and 1.21 nM in experiment [3]. In addition, the cAMP Rel EC50 (in the presence of 1% HSA) in experiment [1] was 640 nM; in experiment [2], 7.58 nM; in experiment [3], 126 nM.
